Reference: publication PMC4218801

Target: T1, Crp (Mycobacterium smegmatis mc2155) (UniProt A0R5H1)
T1 sequence: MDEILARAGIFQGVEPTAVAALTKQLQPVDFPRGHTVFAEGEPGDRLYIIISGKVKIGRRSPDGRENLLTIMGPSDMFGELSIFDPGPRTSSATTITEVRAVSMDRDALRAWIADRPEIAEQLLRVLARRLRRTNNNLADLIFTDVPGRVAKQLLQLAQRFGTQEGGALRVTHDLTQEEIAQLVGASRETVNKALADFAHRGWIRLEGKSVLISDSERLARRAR
Test: EMSA
Details: Invitrogen EMSA kit binding buffer, 100 fmol (9.3 ng) DNA, 100 uM cAMP, 20 min at room temperature; 8% native PAGE in 0.5x TBE pH 8.3 at 4 C, SYBR green stain

GGCAGACCGCATCCGCGGCGCGTTCGGTCGCCGCGTCCCGCGCGCGGGAGATCCGTGCGTTTCGGGATGTGATGCCCGTCGCACGACGTGAGCGGCGGTGTGGAGAATCACGGCTCAGCAAAGTTGCATTTGTAAGAGGGCGCGACCAGA (double strand) [ahpC 150-bp wild-type IR1]
binding: binds
